The record followed here is US20210171647A1 (WUXI BIOLOGICS SHANGHAI, published 2021).

In experiment [1] the target is T1, human OX40, full-length, on cells (human, UniProt P43489 29-277).
T1 construct: whole, on cells; also called hPro1; cell surface human OX40
T1 sequence (looked up): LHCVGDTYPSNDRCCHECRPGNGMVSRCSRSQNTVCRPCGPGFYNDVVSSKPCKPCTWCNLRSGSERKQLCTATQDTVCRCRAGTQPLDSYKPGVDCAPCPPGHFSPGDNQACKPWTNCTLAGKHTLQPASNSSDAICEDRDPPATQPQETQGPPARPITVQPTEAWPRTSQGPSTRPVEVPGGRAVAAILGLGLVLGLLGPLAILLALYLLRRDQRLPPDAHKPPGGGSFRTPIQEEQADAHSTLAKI
Description: flow cytometry, MFI against antibody concentration; neither the legend nor paragraph 266 names the cells, target taken as cell-surface human OX40 because the antibodies are anti-OX40.

For a further experiment, the target named is T2, human 4-1BB (CD137) ECD (human, UniProt Q07011 24-186).
T2 construct: extracellular domain
T2 sequence (Q07011 24-186): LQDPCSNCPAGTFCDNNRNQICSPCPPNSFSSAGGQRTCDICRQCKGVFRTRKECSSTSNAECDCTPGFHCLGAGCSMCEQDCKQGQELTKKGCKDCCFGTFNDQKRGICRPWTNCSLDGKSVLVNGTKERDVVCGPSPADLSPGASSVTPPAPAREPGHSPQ
Kind of experiment: ELISA on coated ECD, one antibody concentration (not given). In general terms: In an ELISA, binding on a coated surface is turned into a signal by an enzyme label.

For the next experiment, the target named is T3, human CD40 ECD (human, UniProt P25942 21-193).
T3 construct: extracellular domain
T3 sequence (P25942 21-193): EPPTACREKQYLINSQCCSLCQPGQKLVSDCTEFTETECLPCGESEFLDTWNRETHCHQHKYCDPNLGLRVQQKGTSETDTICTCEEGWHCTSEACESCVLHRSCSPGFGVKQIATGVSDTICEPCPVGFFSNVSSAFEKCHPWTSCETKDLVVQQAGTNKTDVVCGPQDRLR
The experiment is described as above.

A further experiment deals with T4, human CD271 ECD (human, UniProt P08138 29-250).
T4 construct: extracellular domain
T4 sequence (looked up): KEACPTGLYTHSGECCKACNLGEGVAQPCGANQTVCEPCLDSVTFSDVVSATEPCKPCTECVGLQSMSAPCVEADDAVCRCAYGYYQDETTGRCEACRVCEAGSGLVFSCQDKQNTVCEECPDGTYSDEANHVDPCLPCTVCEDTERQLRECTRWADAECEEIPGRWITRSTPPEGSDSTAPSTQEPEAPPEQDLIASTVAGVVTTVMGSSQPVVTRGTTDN
Described as above.

Experiment [2] addresses T5, human OX40 extracellular domain (ECD) protein (human, UniProt P43489 29-214).
T5 construct: extracellular domain; also called human OX40 ECD; human OX40 protein; not shown: human Fc or His tag
T5 sequence (looked up): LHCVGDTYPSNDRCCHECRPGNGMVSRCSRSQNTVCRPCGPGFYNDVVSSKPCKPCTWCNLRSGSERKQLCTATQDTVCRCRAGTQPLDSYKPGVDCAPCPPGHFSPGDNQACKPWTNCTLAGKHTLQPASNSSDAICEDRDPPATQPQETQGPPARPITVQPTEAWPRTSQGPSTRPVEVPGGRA
Kind of experiment: competition ELISA: human OX40 ECD coated, antibody titrated in a mix with a constant concentration of OX40L, bound OX40L detected at OD450.

In experiment [3] the target is T5, human OX40 extracellular domain (ECD) …. Kind of experiment: SPR, Biacore T200, antibody captured, OX40 as analyte. (In general: Surface plasmon resonance follows binding to a sensor surface in real time, without labels.)
Description: Antibodies were characterized for affinity and binding kinetics to OX40 by SPR assay using Biacore T200 (GE). […] Then various concentrations of human or monkey OX40 and running buffer were flowed through the sensor chip at a flow rate of 30 μL/min for an association phase of 180 s, followed by dissociation. The association and dissociation curve was fit by 1:1 Langmuir binding model using the BIAevaluation T200 software.
Experiment [4] addresses T1, human OX40, full-length, on cells. Kind of experiment: flow cytometry on human OX40 transfected CHO-K1 cells. (In general: Flow cytometry measures light scatter and fluorescence of single cells or particles in a stream.)
Description: (§1) CHO-K 1 cells expressing human OX40 were transferred in to 96-well U-bottom plates (Corning) at a density of 5×10⁴ cells/mL. Testing antibodies were 1:2 serially diluted in wash buffer (1×PBS/1% BSA) and incubated with cells at 4° C. for 1 h. The secondary antibody goat anti-human IgG Fc FITC (3.2 moles FITC per mole IgG, Jackson Immunoresearch Lab) was added and incubated with cells at 4° C. in the dark for half an hour. The cells were then washed once, resuspended in 1×PBS/1% BSA and analyzed by flow cytometry (BD). Fluorescence intensity was converted to bound molecules/cell based on the quantitative beads Quantum™ MESF Kits (Bangs Laboratories, Inc.). The KD value of each antibody was calculated using Graphpad Prism5.
Experiment [5] has the same target. Kind of experiment: flow cytometry on activated human CD4+ T cells.
Description: Briefly, human OX40-expressing CHO-K1 cells or activated human CD4⁺ T cells were transferred into 96-well U-bottom plates (Corning) at a density of 1×10⁵ cells/well. Testing antibodies were serially diluted in wash buffer (1×PBS/1% BSA) and incubated with cells at 4° C. for 1 h. After washing with 1×PBS/1% BSA, the secondary antibody goat anti-human IgG Fc-PE (Jackson ImmunoResearch Lab) was applied and incubated with cells at 4° C. in the dark for 1 h. The cells were then washed and resuspended in 1×PBS/1% BSA or fixed with 4% paraformaldehyde, and then analyzed by flow cytometry (BD).
Experiment [6] deals with T5, human OX40 extracellular domain (ECD) …. Kind of experiment: epitope binning by competition against labelled BMK7 on human OX40; the antibody named in the legend box is titrated; the text describes an ELISA, the axis on the sheet reads MFI.
The target is the same in experiment [7]. Description: epitope binning by competition against labelled BMK10 on human OX40; the antibody named in the legend box is titrated; the text describes an ELISA, the axis on the sheet reads MFI.
Experiment [8] addresses T1, human OX40, full-length, on cells. Description: flow cytometry, CHO-K1 cells expressing human OX40, MESF beads.
Description: as §1
In experiment [9] the target is T6, mouse OX40 (mPro1) on transfected 293F cells (mouse, UniProt P47741 20-272).
T6 construct: whole, on cells
T6 sequence (looked up): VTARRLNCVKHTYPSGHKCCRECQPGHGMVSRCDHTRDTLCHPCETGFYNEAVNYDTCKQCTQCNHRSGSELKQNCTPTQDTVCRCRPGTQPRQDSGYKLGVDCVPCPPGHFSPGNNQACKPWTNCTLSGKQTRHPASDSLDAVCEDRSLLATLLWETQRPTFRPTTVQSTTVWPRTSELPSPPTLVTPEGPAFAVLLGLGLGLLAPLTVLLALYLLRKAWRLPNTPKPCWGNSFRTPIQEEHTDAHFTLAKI
Description: FACS, transfected 293F cells, antibody 1 ug/mL.
Description: (§2) Binding of antibodies to chimeric OX40 variants was analyzed by flow cytometry. […] Cells were analyzed using flow cytometer.

The target of experiment [10] is T1, human OX40, full-length, on cells. Description: FACS, transfected 293F cells, antibody 1 ug/mL.
Description: as §2
For experiment [11], the target named is T7, rhesus monkey OX40 on transfected 293F cells (rhesus monkey).
T7 construct: whole, on cells
Kind of experiment: flow cytometry on rhesus monkey OX40 transfected 293F cells.
Description: Testing antibodies were serially diluted in wash buffer (1×PBS/1% BSA) and incubated with cells at 4° C. for 1 h. After washing with 1×PB S/1% BSA, the secondary antibody goat anti-human IgG Fc-PE (Jackson ImmunoResearch Lab) was applied and incubated with cells at 4° C. in the dark for 1 h. The cells were then washed and resuspended in 1×PB S/1% BSA or fixed with 4% paraformaldehyde, and then analyzed by flow cytometry (BD).

Description for human 4-1BB (CD137) ECD: (§3) Human OX40, CD40, 4-1BB (CD137) and CD271 ECD were coated on plates (Nunc) overnight at 4° C. After blocking and washing, testing antibodies were diluted in blocking buffer and added to the plates and incubated at room temperature for 1 h. The plates were then washed and subsequently incubated with secondary antibody goat anti-human IgG Fc-HRP (Bethyl) for 1 h. After washing, TMB substrate was added and the interaction was stopped by 2M HCl.
Description for human CD271 ECD: as §3
Description for human CD40 ECD: as §3

B1: 1.62.3-u1-IgG1K (antibody, V domains shown)
VH: QVQLQESGPGLVKPSQTLSLTCTVSGGSISNGGYYWSWIRQHPGKGLEWIGYIYYSGSTYYNPSLKSRVTISVDTSKNQFSLKLSSVTAADTAVYYCARDEWELRGFDYWGQGTLVTVSS
VL: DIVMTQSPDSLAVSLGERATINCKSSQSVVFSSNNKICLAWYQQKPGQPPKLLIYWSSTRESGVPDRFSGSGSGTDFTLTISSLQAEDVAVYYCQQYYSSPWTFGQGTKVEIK
notes: fully human IgG1, kappa
Consider B1, for which, in experiment [1], the “EC50 (read off the curve)” value is approximately 0.8 nM. Moreover, the binding result with human 4-1BB (CD137) ECD, with human CD40 ECD and in the experiment with human CD271 ECD was “no binding” each time. In experiment [2], the “IC50 (read off the curve)” value is approximately 1 nM. Moreover, the affinity in experiment [3], expressed as Kd, was 0.461 nM. For the same molecule, the koff in experiment [3] was determined as 0.000243 s⁻¹. The molecule also had an on-rate constant (kon) in experiment [3] of 526000 M⁻¹ s⁻¹.

B2: 1.62.3-u1-3-IgG1K (antibody, V domains shown)
VH: QVQLQESGPGLVKPSQTLSLTCTVSGGSISNAGYYWSWIRQHPGKGLEWIGYIYYSGSTYYNPSLKSRVTISVDTSKNQFSLKLSSVTAADTAVYYCARDEWELRGFDYWGQGTLVTVSS
VL: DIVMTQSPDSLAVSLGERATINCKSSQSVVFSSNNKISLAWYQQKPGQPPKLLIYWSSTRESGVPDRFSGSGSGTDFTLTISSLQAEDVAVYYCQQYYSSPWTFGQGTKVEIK
notes: fully human IgG1, kappa; PTM variant of 1.62.3-u1-IgG1K (G to A in CDRH1, C to S in CDRL1)
As for B2, the “EC50 (read off the curve)” value in experiment [1] is approximately 2 nM; in experiment [4], approximately 0.9 nM; in experiment [5], approximately 0.8 nM. Besides, the Kd in experiment [3] is 2.08 nM. The molecule further yielded a koff in experiment [3] of 0.00145 s⁻¹. Further, the kon in experiment [3] was 697000 M⁻¹ s⁻¹.

B3: 1.7.10-u1-IgG1K (antibody, V domains shown)
VH: QVHLVESGGGLVKPGGSLRLSCAASGFTFSDYYMSWIRQAPGKGLEWVSYISGSGNTIYYADSVKGRFTISRDNAKNSLYLQMNSLRADDTAVYFCARERGAAGTGWFDPWGQGTLVTVSS
VL: DIQMTQSPSSVSASVGDRVTITCRASQGISSWLAWYQQKPGKAPKLLIYAASSLQGGVPSRFSGSGSGTDFTLTISSLQPEDFATYYCQQVNSFPWTFGQGTKVEIK
notes: fully human IgG1, kappa
Turning to B3, the binding result with human 4-1BB (CD137) ECD, with human CD40 ECD and with human CD271 ECD was “no binding” throughout. Further, the results for the “IC50 (read off the curve)” value in [2] and in [6] were approximately 3 nM and approximately 4 nM, respectively. Further, the results for the 50% effective concentration (EC50 (read off the curve)) in experiment [4] and in experiment [5] were approximately 1 nM and 1 to 2 nM, respectively. This molecule gave a Kd in experiment [3] of 1.49 nM. This molecule also showed an off-rate (koff) in [3] of 0.00128 s⁻¹. In [3], the kon worked out at 860000 M⁻¹ s⁻¹.

B4: 1.186.19-u1-IgG1K (antibody, V domains shown)
VH: QVHLVESGGGLVKPGGSLRLSCAASGFTFSDYYMGWIRQAPGQGLEWVSYISGSGNTIYYADSVKGRFTISRDNAKNSLYLQMNSLRADDTAVYFCAKERGAAGAGWFDPWGQGTLVTVSS
VL: DIQMTQSPSSVSASVGDRVTITCRASQGISSWLAWYQQKPGKAPKLLIYAASSLQGGVPSRFSGSGSGTDFTLTISSLQPEDFATYHCQQVNSFPWTFGQGTKVEIK
notes: fully human IgG1, kappa
Consider B4, for which the binding result with human 4-1BB (CD137) ECD, with human CD40 ECD and with human CD271 ECD was “no binding” each time. Moreover, the “IC50 (read off the curve)” value was approximately 3 nM in [2] and approximately 4 nM in [6]. In experiment [3], this molecule returned a Kd of 1.16 nM. The same molecule displayed a koff in experiment [3] of 0.000451 s⁻¹. This molecule yielded a kon in [3] of 390000 M⁻¹ s⁻¹. The “EC50 (read off the curve)” value in experiment [5] is approximately 2 nM.

B5: 1.214.23-u1-IgG1K (antibody, V domains shown)
VH: QVQLQESGPGLVKPSGTLSLTCVVSGGSISNRNWWSWVRQPPGKGLEWIGEIFHSGNTNYNPSLKSRVTISVDKSKNQFSLKVNSVTAADTAVYYCAKSFAVALDSWGQGTLVTVSS
VL: DIQLTQSPSFLSASVGDRVTITCRASQDINSYLAWCQQKPGKAPKLLIYAASSLQSGVPSRFSGTGSGTEFTLTISSLQPEDFATYYCQQLFSYPITFGQGTRLEIK
notes: fully human IgG1, kappa
With B5, the “IC50 (read off the curve)” value in experiment [7] was approximately 4 nM; in experiment [2] it was approximately 1 nM; in [6], approximately 1 nM. The dissociation constant (Kd) in experiment [8] was 0.067 nM; in [3], 0.502 nM. Also, the binding result with human 4-1BB (CD137) ECD, with human CD40 ECD and in the experiment with human CD271 ECD was “no binding” in each case. The “EC50 (read off the curve)” value is approximately 0.6 nM in experiment [4] and approximately 3 nM in experiment [11]. Also, the koff in experiment [3] was 0.000214 s⁻¹. This molecule also displayed a kon in experiment [3] of 426000 M⁻¹ s⁻¹. For the same molecule, the MFI stood at 49.9 in [9] and 8320 in experiment [10]. Besides, the figures for the “PE + %” value in experiment [9] and in experiment [10] were 0.315% and 89.3%, respectively.

By EC50 (read off the curve) is commonly meant the concentration giving half of the maximal effect. One may read the Kd as a measure of binding affinity in units of concentration. One may read the koff as the rate constant with which the complex falls apart. A word on the kon: it is the rate constant with which the complex forms.
